Results: KR20140095558A (dated 2014)

B1: SC06-198 (scFv)
scFv: QLQLQESGPGLVKPSETLSLTCAVSGYSITSGYYWGWVRQPPGKGLEWIGSIYHTGSTYYNPSLKSRVTISVDTSKNQFSLKLNSLTAADTAVYFCASQSPAFDFWGQGTMVTVSSGTGGSGGTGSGTGGSTQSVLTQPPSVSGAPGQRVTISCTGSSSNIGTGYDVHWYQQLPGTAPKLLIYGNNNRPSGVPDRFSGSKSGTSASLAITGLQAEDEADYYCATWDDSLNGWVFGGGTKLTVP
B2: SC06-191 (scFv)
scFv: EVQLVESGGGVVQPGRSLRLSCVASEFTFSNYGMHWVRQAPGKGLEWVAVIWYDGSNEDYADSVKGRFTISRDNSKNTVYLHMNSLRAEDTAVYFCTRGQYSSTWFLDYWGQGTLVTVSSGTGGSGGTGSGTGGSTDIQLTQSPSTLSASVGDRVTITCRASQSISSWLAWYQQKPGKAPKLLIYKASSLETGVPSRFSGSGSGTDFTLTISSLQPEDFATYYCQQANSFPLTFGGGTKVDIK
B3: SC06-246 (scFv)
scFv: EVQLVESGGGLIQPGGSLRLSCAASGFTVSSDFMTWVRQAPGRGLEWVSLIYSGGKTNYADSVKGRFTISRDNSRNTLYLQMNSLRAEDTAVYYCARSVCSTISCSKLDDWGQGTLVTVSSGTGGSGGTGSGTGGSTQAVLTQPSSVSVAPGQTARITCGGNNIGRKSVHWYQQKPGLAPVLVVNDNSDRPSGIPARFSGSNSGNTATLTISRVEAGDEADYYCHVWGSSRDHYVFGTGTKVTVL
B4: SC06-241 (scFv)
scFv: EVQLVESGGGLVQPGRSLRLSCAASGFTFRSYAMYWVRQAPGKGLEWLALISHDASKMFYADSVKGRFTISRDNSKNTLSLQMNSLTIEDTAVYYCVRERTGYYGAYWGQGTLVTVSSGTGGSGGTGSGTGGSTDIQMTQSPSSLSASVGDRVTLTCRASQGIGTWLAWYQQKPGKAPKLLIYSASSLQSGVPSRFSGSGSGTDFTLSISNLQPEDFATYYCQQANSFPITFGQGTRLEIK
B5: SC06-252 (scFv)
scFv: EVQLVETGGGLVQPGGSLRLSCAASGLTFSSYAMSWVRQAPGKGLEWVSALSGSTTFYADSVKGRFTISRDNAKNTLYLQMNSLRAEDTAVYYCARGNYYGMDVWGQGTTVTVSSGTGGSGGTGSGTGGSTSYVLTQPPSASGTPGQRVTISCSGSSSNIGKFYVYWYQQFPGAAPKLLIYSNNQRPSGVPDRFSGSKSGTSASLAISGLQSEDEADYYCAAWDGSLNGYVFGTGTKVTVL
B6: SC06-388 (scFv)
scFv: EVQLVETGAEVKKPGESLRISCKGSGYSFTSYWIAWVRQMPGKGLEWMGVIYPGDSDARYSPSFQGQVTMSVDKSISTAYLQWSSLKASDTAMYYCAKLRSKNTGLDYWGQGTLVTVSSGTGGSGGTGSGTGGSTQSALTQPPSASGSPGQSVTISCTGTSSDVGGYNFVSWYQQHPGKAPKLMIYEVSNRPSGVPDRFSGSKSGNTASLTVSGLQAEDEADYYCSSYAGNNNLAFGGGTQLTVL
B7: SC05-159 (scFv)
scFv: QVQLVQSGAEVKKPGATVKISCKVSGYTFTDYYMHWVQQAPGKGLEWMGLVDPEDGETIYAEKFQGRVTITADTSTDTAYMELSSLRSDDTAVYYCARAEVMTTINNWYFDLWGRGTLVTVSSGTGGSGGTGSGTGGSTSYVLTQPPSASGTPGQRVTISCSGSSSNIGSNNVSWYQQLPGTAPKLLIYSNNQRPSGVPDRFSGSKSGTSASLAISGLQSEDEADYYCAAWDDSLNGWVFGGGTKLTVL
B8: SC06-242 (scFv)
scFv: EVQLVESGPGLVKPSETLSLTCTVSGGSISSYYWSWIRQPPGKGLEWIGYIYYTGTTNYNPSLNSRVTISADTSKNQFSLKLSSVTAADTAVYYCARGGQTAGVWGKGTTVTVSSGTGGSGGTGSGTGGSTQSVLTQPPSVSVAPGQTARITCGGYNIGRKSVHWYQQKPGLAPVLVVYDNSDRPSGIPARFSGSNSGNTATLTISGTQAMDEADYYCQAWDRGTAVFGTGTKVTVL

The binders below were run against T1, BSA (bovine serum albumin) (bovine (송아지 혈청 알부민), UniProt P02769 25-607) (assay: phage ELISA, 1% BSA coated, anti-M13 peroxidase, OD 492 nm).
T1 construct: Negative control antigen of the phage ELISA; also called 송아지 혈청 알부민
T1 sequence (P02769 25-607 limits assumed): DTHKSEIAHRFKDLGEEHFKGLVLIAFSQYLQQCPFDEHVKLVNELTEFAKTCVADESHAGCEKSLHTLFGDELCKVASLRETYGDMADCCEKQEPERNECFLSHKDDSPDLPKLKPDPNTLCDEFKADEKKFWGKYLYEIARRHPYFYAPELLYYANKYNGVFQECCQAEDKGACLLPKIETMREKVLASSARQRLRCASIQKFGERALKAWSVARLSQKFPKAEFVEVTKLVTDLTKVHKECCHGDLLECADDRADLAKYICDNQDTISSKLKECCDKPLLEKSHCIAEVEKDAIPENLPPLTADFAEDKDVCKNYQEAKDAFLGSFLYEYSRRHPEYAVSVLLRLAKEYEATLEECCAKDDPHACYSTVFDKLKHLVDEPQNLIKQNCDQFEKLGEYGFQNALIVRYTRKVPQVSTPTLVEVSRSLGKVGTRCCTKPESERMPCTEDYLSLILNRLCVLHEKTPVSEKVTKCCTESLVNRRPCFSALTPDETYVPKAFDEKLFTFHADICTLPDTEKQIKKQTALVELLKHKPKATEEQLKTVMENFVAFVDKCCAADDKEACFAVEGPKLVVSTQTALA

Binder	binding result
B1	no binding
B2	no binding
B3	no binding
B4	no binding
B5	no binding
B6	no binding
B7	no binding
B8	no binding
